Assay results published in doi:10.1101/2024.09.03.610921 (bioRxiv, 2024).

Molecular target: recombinant human histone H3.1 (human, UniProt P68431 1-136)
Assay: pull-down

binding result: binds
B1: RAGE^124-341-His-FLAG (extracellular region of RAGE lacking the V domain) (domain or fragment)
chain: PEIVDSASELTAGVPNKVGTCVSEGSYPAGTLSWHLDGKPLVPNEKGVSVKEQTRRHPETGLFTLQSELMVTPARGGDPRPTFSCSFSPGLPRHRALRTAPIQPRVWEPVPLEEVQLVVEPEGGAVAPGGTVTLTCEVPAQPSPQIHWMKDGVPLPLPPSPVLILPEIGPQDQGTYSCVATHSSHGPQESRAVSISIIEPGEEGPTAGSVGGSGLGTL
